Measurements published in article doi:10.1101/2024.02.16.580631 (bioRxiv, 2024).

Biological target: the molecule itself
Assay: crystal structure

B1: Nucleoside diphosphate kinase B (NDPKB), human (enzyme)
chain: ANLERTFIAIKPDGVQRGLVGEIIKRFEQKGFRLVAMKFLRASEEHLKQHYIDLKDRPFFPGLVKYMNSGPVVAMVWEGLNVVKTGRVMLGETNPADSKPGTIRGDFCIQVGRNIIHGSDSVKSAEKEISLWFKPEELVDYKSCAHDWVYE
modifications: phosphorylated histidine at 118 (His 118-P) in the crystal
stoichiometry N: 6
